Test results as given in FireProtDB (doi:10.1111/j.1432-1033.1993.tb17904.x).

Details: Carica papaya, Thermal, DSC, glycine-HCl 5 mM, reversible: yes

Sequence of Chymopapain wild type, P14080 (P14080 whole entry): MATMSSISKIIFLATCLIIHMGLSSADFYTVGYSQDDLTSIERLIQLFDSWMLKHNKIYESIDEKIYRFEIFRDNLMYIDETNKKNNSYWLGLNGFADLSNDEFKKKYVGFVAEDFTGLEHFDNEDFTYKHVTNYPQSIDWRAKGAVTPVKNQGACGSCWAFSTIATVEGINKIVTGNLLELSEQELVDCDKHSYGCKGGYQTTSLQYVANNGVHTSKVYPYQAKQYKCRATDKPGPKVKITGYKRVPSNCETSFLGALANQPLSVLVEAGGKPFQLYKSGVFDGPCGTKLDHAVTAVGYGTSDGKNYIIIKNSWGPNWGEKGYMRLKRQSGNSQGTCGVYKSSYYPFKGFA

Chymopapain wild type, P14080
Tm (pH 1.9): 69.3 °C
unfolding enthalpy (calorimetric) (pH 1.9): 147 kcal/mol
unfolding enthalpy (van 't Hoff) (pH 1.9): 88.3 kcal/mol
Tm (pH 2.4): 71.6 °C
unfolding enthalpy (calorimetric) (pH 2.4): 154 kcal/mol
unfolding enthalpy (van 't Hoff) (pH 2.4): 87.9 kcal/mol
Tm (pH 2.9): 78.3 °C
unfolding enthalpy (calorimetric) (pH 2.9): 175 kcal/mol
unfolding enthalpy (van 't Hoff) (pH 2.9): 95.2 kcal/mol
Tm (pH 3.5): 85.8 °C
unfolding enthalpy (calorimetric) (pH 3.5): 232 kcal/mol
unfolding enthalpy (van 't Hoff) (pH 3.5): 125 kcal/mol
